One may read the Kd as the equilibrium constant for the complex coming apart.

This note sets out measurements from patent US20260022175A1 (Chugai, published 2026).

In experiment [1] the target is T1, mCTLA4-His (mouse CTLA4 extracellular region linked with a His-tag) (mouse, UniProt P09793 36-161). Briefly: SPR 37C, ATP 100 µM.
The target in experiment [2] is T1, mCTLA4-His (mouse CTLA4 extracellular …). The experiment in a line: SPR 37C, ATP 100 µM. The source holds these as a separate data set.
The target is the same in experiment [3]. The experiment in a line: SPR 37C, ATP 10 µM.
The target of experiment [4] is T2, hFcγRIIaH on hFcγRIIaH-expressing Jurkat cells (human, UniProt P12318 34-317).
T2 sequence (looked up): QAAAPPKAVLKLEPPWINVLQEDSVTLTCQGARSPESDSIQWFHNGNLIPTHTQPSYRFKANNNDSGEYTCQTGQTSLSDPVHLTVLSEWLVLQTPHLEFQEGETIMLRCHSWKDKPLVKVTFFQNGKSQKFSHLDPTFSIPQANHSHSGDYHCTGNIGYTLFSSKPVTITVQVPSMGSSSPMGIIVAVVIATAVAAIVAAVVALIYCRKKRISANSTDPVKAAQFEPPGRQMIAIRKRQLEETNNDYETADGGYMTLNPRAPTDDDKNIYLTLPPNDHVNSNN
Briefly: cell-based or functional assay.

Experiment [5] deals with T3, human FcγRIIa R extracellular domain (human, UniProt P12318 34-217).
T3 construct: extracellular domain; also called hFcγR IIa R
T3 sequence (looked up): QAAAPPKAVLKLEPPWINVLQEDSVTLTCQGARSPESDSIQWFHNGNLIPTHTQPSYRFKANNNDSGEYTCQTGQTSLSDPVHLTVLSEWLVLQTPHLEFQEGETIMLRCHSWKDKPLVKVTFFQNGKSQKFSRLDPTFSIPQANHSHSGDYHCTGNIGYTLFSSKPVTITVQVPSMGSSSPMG
The experiment in a line: SPR Biacore 8K+; KD for FcγRIIb divided by KD for this FcγR.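 Further: antibodies captured on an anti-human Fab kappa SA chip with soluble human FcγR ectodomains flowed over, FcγRIIb KD from steady-state fit, other FcγR KD from Langmuir model.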 In general terms: SPR reads the build-up and loss of mass on a sensor chip optically.

Experiment [6] deals with T4, human FcγRIIIa V extracellular domain (human, UniProt P08637 17-208).
T4 construct: extracellular domain; also called hFcγR IIIa V
T4 sequence (P08637 17-208 F176V limits assumed): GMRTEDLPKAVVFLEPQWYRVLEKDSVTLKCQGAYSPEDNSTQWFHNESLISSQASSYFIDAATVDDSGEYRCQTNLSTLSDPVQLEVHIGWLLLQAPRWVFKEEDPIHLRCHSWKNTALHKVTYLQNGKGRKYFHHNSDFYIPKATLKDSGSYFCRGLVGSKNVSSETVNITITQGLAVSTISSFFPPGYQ
The description is as above.

The target in experiment [7] is T5, human FcγRIIIa F extracellular domain (human, UniProt P08637 17-208).
T5 construct: extracellular domain; also called hFcγR IIIa F
T5 sequence (P08637 17-208): as the sequence (P08637 17-208 F176V limits assumed) above, with V160F counted along it
Described as above.

Experiment [8] deals with T6, human FcγRIIa H extracellular domain (human, UniProt P12318 34-217).
T6 construct: extracellular domain; also called hFcγR IIa H
T6 sequence (looked up): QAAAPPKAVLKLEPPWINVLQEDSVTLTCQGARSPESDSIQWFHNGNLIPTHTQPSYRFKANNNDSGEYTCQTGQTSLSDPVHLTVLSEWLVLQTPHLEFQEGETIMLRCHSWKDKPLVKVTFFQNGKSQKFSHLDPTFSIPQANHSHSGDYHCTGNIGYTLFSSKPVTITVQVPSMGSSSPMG
The experiment is described as above.

The target of experiment [9] is T4, human FcγRIIIa V extracellular domain. Briefly: SPR Biacore 8K+, antibody captured, FcγR as analyte, 1:1 Langmuir model; hFcγR IIIa V allotype.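 Further: antibodies captured on a streptavidin chip through a biotinylated anti-human Fab kappa reagent, with FcγR extracellular domains injected in pH 7.4 phosphate buffer at 25 °C.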
Experiment [10] addresses T3, human FcγRIIa R extracellular domain. Briefly: SPR Biacore 8K+, antibody captured, FcγR as analyte, 1:1 Langmuir model.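 Further: antibodies captured on a streptavidin chip through a biotinylated anti-human Fab kappa reagent, with FcγR extracellular domains injected in pH 7.4 phosphate buffer at 25 °C.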
The target in experiment [11] is T7, human FcγRIa extracellular domain (human, UniProt P12314 16-292).
T7 construct: extracellular domain; also called hFcγR Ia; hFcγRIa
T7 sequence (P12314 16-292): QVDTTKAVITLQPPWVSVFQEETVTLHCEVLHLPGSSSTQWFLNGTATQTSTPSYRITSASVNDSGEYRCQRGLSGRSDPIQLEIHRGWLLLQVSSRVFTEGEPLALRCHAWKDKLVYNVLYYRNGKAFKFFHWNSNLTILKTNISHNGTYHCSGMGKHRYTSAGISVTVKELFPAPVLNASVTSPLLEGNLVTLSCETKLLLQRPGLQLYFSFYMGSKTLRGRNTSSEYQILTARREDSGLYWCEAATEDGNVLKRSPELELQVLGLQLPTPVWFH
The description is as above.

The target of experiment [12] is T6, human FcγRIIa H extracellular domain. The experiment is described as above.
Experiment [13] addresses T3, human FcγRIIa R extracellular domain. The experiment in a line: SPR Biacore 8K+; KD of G1d divided by KD of this antibody.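 Further: antibodies captured on an anti-Fab-kappa streptavidin chip, soluble FcγR ectodomains flowed over, KD by steady-state fit for FcγRIIb and Langmuir kinetic model for the other receptors.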
In experiment [14] the target is T8, human FcγRIIb extracellular domain (human, UniProt P31994 43-217).
T8 construct: extracellular domain; also called hFcγR IIb
T8 sequence (looked up): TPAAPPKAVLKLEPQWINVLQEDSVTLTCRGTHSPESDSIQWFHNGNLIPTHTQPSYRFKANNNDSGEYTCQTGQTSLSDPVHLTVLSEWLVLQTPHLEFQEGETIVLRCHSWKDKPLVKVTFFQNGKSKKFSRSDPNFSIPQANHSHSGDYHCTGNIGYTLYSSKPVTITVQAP
The experiment is described as above.

The target of experiment [15] is T7, human FcγRIa extracellular domain. The description is as above.
Experiment [16] concerns the target T4, human FcγRIIIa V extracellular domain. The experiment is described as above.
The target in experiment [17] is T5, human FcγRIIIa F extracellular domain. The description is as above.
Experiment [18] concerns the target T6, human FcγRIIa H extracellular domain. The description is as above.
The target of experiment [19] is hFcγRIIIaV on hFcγRIIIaV-expressing Jurkat cells (human, UniProt P08637 17-254). The experiment in a line: cell-based or functional assay.
Chain of hFcγRIIIaV on hFcγRIIIaV-expressing Jurkat cells (P08637 17-254, form in doubt): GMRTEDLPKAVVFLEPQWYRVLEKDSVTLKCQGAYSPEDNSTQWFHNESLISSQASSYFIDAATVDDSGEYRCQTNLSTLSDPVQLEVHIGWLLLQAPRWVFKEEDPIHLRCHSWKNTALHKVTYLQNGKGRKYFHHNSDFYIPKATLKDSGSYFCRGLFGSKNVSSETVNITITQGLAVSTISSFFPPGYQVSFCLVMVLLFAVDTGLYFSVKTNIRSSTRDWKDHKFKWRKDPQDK
The target in experiment [20] is T8, human FcγRIIb extracellular domain. Briefly: SPR Biacore 8K+, antibody captured, FcγR as analyte, steady state affinity model.
Experiment [21] addresses T5, human FcγRIIIa F extracellular domain. The experiment in a line: SPR Biacore 8K+, antibody captured, FcγR as analyte, 1:1 Langmuir model; hFcγR IIIa F allotype.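 Further: antibodies captured on a streptavidin chip through a biotinylated anti-human Fab kappa reagent, with FcγR extracellular domains injected in pH 7.4 phosphate buffer at 25 °C.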
Experiment [22] addresses T9, human CTLA4 (human).
T9 construct: also called hCTLA4; hCTLA4-His-BAP
The experiment in a line: SPR, 37C, antibody captured by anti-mouse IgG, ATP 1 uM.

The target in experiment [23] is T9, human CTLA4. Briefly: SPR, 37C, antibody captured by anti-mouse IgG, ATP 10 uM.
Experiment [24] addresses T9, human CTLA4. Briefly: SPR, 37C, antibody captured by anti-mouse IgG, ATP 100 uM.

T9 sequence (chain, as listed by the source limits assumed): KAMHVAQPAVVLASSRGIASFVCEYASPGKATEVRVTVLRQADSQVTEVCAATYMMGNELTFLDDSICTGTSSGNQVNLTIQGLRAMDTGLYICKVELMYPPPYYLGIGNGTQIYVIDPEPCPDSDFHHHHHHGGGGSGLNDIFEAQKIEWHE

B1: 04H1208-G1m/04L1407-k0MT (antibody, human IgG1, kappa, V domains shown)
VH: EVQLVESGGGLVKPGGSLRLSCAASGFTFSSKTMNWVRQAPGKGLEWVSSISTRSGYIYYARSVKGRFTISRDNAKNSLYLQMNSLRAEDTAVYYCARYGKREDMLWVFDYWGQGTLVTVSS
VL: DIVMTQSPLSLPVTPGEPASISCDGPSTDVGDYNWVHWYQQKPGQAPRLLIYYTSSKPEGVPDRFSGSGSGTDFTLKISRVEAEDVGVYYCQTYAAPLGPTFGQGTKLEIKR
Consider B1, for which the “fold weaker than its binding ability to human CTLA4” value in experiment [1] is approximately 2 times. Further, the Kd in [2] was 16 nM; in [3], 84 nM.

B2: H240-Kn037/L73-k0//H240-Hl036/L73-k0 (antibody, human IgG1, kappa)
heavy 1: QDQLVQSGAEVKKPGASVKVSCKASGFNIKDTYIQWVRQAPGQGLEWMGRIDPLRKQTKYREKFEGRVTITADTSTNTAYMELSSLRSEDTAVYYCVRSGREFDYWGQGTLVTVSSASTKGPSVFPLAPSSKSTSGGTAALGCLVKDYFPEPVTVSWNSGALTSGVHTFPAVLQSSGLYSLSSVVTVPSSSLGTQTYICNVNHKPSNTKVDKKVEPKSCDKTHTCPPCPAPELLAGPDVFLFPPKPKDTLMISRTPEVTCVVVDVSHEDPEVKFNWYVDGVEVHNAKTKPREEQYNSTYRVVSVLTVLHQDWLNGKEYKCKVSNKALPAPEEKTISKAKGQPREPQVCTLPPSRDELTKNQVSLWCLVKGFYPSDIAVEWESNGQPENNYKTTPPVLDSDGSFFLYSKLTVDKSRWQQGNVFSCSVMHEALHNHYTQKSLSLSP
heavy 2: QDQLVQSGAEVKKPGASVKVSCKASGFNIKDTYIQWVRQAPGQGLEWMGRIDPLRKQTKYREKFEGRVTITADTSTNTAYMELSSLRSEDTAVYYCVRSGREFDYWGQGTLVTVSSASTKGPSVFPLAPSSKSTSGGTAALGCLVKDYFPEPVTVSWNSGALTSGVHTFPAVLQSSGLYSLSSVVTVPSSSLGTQTYICNVNHKPSNTKVDKKVEPKSCDKTHTCPPCPAPELLAGPDVFLFPPKPKDTLMISRTPEVTCVVVDVSHEDPEVKFNWYVDGVEVHNAKTKPREEQYNSTYRVVSVLTVLHQDWLNGKEYKCKVSNKALPAPEEKTISKAKGQPREPQVYTLPPSRCELTKNQVSLSCAVKGFYPSDIAVEWESNGQPENNYKTTPPVLDSDGSFFLVSKLTVDKSRWQQGNVFSCSVMHEALHNHYTQKSLSLSP
light: DIQMTQSPSSLSASVGDRVTITCRASQDIHKYIAWYQQKPGQAPRLLIQYTSTLQPGVPSRFSGSGSGTDYTFTISSLQPEDIATYYCLQYEQLRTFGGGTKVEIKRTVAAPSVFIFPPSDEQLKSGTASVVCLLNNFYPREAKVQWKVDNALQSGNSQESVTEQDSKDSTYSLSSTLTLSKADYEKHKVYACEVTHQGLSSPVTKSFNRGEC
notes: also called EGL-GASDIE; GASDIE
On to B2, for which the “EC50 value (hFcγRIIaH ADCP Reporter Bioassay, Hepa1-6/hEREG target cells)” value in experiment [4] is 14.9 ng/mL. In addition, the “A/I ratio (KD for FcγRIIb divided by KD for each FcγR)” value in [5] was 18.6; in experiment [6], 52.6; in experiment [7] it was 18.9; in experiment [8], 18.2. Also, the Kd in experiment [9] is 23.8 nM; in experiment [10] it was 67 nM; in experiment [11], 0.0145 nM; in [12], 68.6 nM; in experiment [20] it was 1250 nM; in experiment [21], 66.1 nM. Also, the “Relative value to KD between G1d and hFcgRs” value in experiment [13] was found to be 24.7; in [14] it was 8; in experiment [15], 6.2; in [16], 15.1; in experiment [17], 44.7; in [18], 16.4. Moreover, the “EC50 value (hFcγRIIIaV ADCC Reporter Bioassay, Hepa1-6/hEREG target cells)” value in [19] was 3.7 ng/mL.

B3: 04H1389-mFa55/04L1305-mk1 (antibody, mouse IgG2a, kappa)
heavy: EVQLVESGGGLVKPGGSLRLSCAASGFTFSSKTMNWVRQAPGKGLEWVSSISTQSHYIYYAESVKGRFTISRDNAKNSLYLQMNSLRAEDTAVYYCARYGKREDMLWVFDYWGQGTLVTVSSAKTTAPSVYPLAPVCGDTTGSSVTLGCLVKGYFPEPVTLTWNSGSLSSGVHTFPAVLQSDLYTLSSSVTVTSSTWPSQSITCNVAHPASSTKVDKKIEPRGPTIKPCPPCKCPAPNLLGGPDVFIFPPKIKDVLMISLSPIVTCVVVDVSEDDPDVQISWFVNNVEVHTAQTQTHREDYNSTLRVVSALPIQHQDWMSGKEFKCKVNNKDLPAPIERTISKPKGSVRAPQVYVLPPPEEEMTKKQVTLTCMVTDFMPEDIYVEWTNNGKTELNYKNTEPVLDSDGSYFMYSKLRVEKKNWVERNSYSCSVVHEGLHNHHTTKSFSRTPGK
light: DIVMTQSPLSLPVTPGEPASISCDGPSTGVGDYNYVHWYQQKPGQAPRLLIYFTSKKPSGVPDRFSGSGSGTDFTLKISRVEAEDVGVYYCQTYAAPLGPMFGQGTKLEIKRADAAPTVSIFPPSSEQLTSGGASVVCFLNNFYPKDINVKWKIDGSERQNGVLNSWTDQDSKDSTYSMSSTLTLTKDEYERHNSYTCEATHKTSTSPIVKSFNRNEC
notes: Mouse constant regions mFa55 and mk1; also called SW1389-mFa55
Turning to B3, the Kd in the experiment with human CTLA4 [22] turned out to be 51 nM; with human CTLA4 [23] it was 18 nM; with human CTLA4 [24] it was 8.9 nM.
